This assay concerns the target T1, B7H3 target antigen (UniProt Q5ZPR3 29-466, limits assumed).
T1 construct: Control antigen is called 'other biotin-free antigen', which hints that this antigen may be biotinylated; also called B7H3 antigen; B7-H3 antigen
T1 sequence (looked up): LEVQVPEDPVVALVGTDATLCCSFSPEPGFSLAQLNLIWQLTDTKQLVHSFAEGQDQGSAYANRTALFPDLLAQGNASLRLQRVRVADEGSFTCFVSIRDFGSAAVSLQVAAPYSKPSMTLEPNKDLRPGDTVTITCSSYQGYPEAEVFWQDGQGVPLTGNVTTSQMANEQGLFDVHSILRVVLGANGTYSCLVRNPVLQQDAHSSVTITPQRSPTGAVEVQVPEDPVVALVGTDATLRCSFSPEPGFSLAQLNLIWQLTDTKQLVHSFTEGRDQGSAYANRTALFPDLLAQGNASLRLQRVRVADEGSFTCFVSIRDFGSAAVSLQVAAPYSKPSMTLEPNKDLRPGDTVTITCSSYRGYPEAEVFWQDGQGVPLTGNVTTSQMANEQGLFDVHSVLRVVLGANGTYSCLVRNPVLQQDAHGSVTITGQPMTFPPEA
Briefly: Biacore SPR, antibody captured on Protein A chip, antigen flowed, Langmuir fit. A general note: Surface plasmon resonance follows binding to a sensor surface in real time, without labels.

Procedure: The B7-H3 antigen was allowed to flow over the chip surface using a series of concentration gradients. The binding time was 120 s, and the dissociation time was 120 s. After the cycle dissociation was completed, the biochip was washed with glycine-hydrochloric acid (pH=1.5) buffer, the sample injection was performed at 30 μL/min, and regeneration was performed for 30 s. Reaction signals were detected in real time using a Biacore instrument, and thus binding and dissociation curves were obtained.
The data obtained from the experiment were fitted with the Langmuir model using GE software.

B1: purified B7H3-02 scFv protein (prokaryotic expression, pET-22b) (scFv)
scFv: EVQLFQSGGGLVQPGGSLRLSCAASGFTFSSYAMSWVRQAPGKGLEWVSAISGSGGSTYYADSVKGRFTISRDNSKNTLYLQMNSLRAEDTAVYYCARGVGRGFDYWGQGTTVTVSSSGGGSGGGGSGGGGSDIQLTQSPSSLSASVGDRVTITCRASQSISIYLNWYRQQPGKAPKLLIYAASSLQSGVPSRFSGSGSGTDFTLTISSLQPEDFATYFCQQTYSTPPWTFGQGTKVDIK
notes: The Biacore experiment speaks of 'purified B7H3-02 antibodies' captured on a Protein A chip; also called B7H3-02 scFv antibody; B7H3-02 antibody; not shown: His tag implied (detected with His antibodies, pET-22b vector)
In the case of B1, the Kd (in general, the concentration at which binding is half-saturated) came out at 27.8 nM.

Values taken from US20240245771A1 (XUZHOU MEDICAL UNIVERSITY, published 2024).
